{"source": "paper PMC4530445", "about": "“PDZ interaction of Vangl2 links PSD-95 and Prickle2 but plays only a limited role in the synaptic localisation of Vangl2” (Scientific Reports, 2015)", "target": "T1, GFP-PSD-95 (green fluorescent protein-tagged postsynaptic density-95) (UniProt P31016 1-724)", "T1 construct": "postsynaptic density-95 (PSD-95); Printed as GFP-PSD-95 in the results and PSD-95-GFP in the methods; also called PSD-95-GFP; source: HEK293T, transfected, in lysate", "T1 sequence (P31016 whole entry)": "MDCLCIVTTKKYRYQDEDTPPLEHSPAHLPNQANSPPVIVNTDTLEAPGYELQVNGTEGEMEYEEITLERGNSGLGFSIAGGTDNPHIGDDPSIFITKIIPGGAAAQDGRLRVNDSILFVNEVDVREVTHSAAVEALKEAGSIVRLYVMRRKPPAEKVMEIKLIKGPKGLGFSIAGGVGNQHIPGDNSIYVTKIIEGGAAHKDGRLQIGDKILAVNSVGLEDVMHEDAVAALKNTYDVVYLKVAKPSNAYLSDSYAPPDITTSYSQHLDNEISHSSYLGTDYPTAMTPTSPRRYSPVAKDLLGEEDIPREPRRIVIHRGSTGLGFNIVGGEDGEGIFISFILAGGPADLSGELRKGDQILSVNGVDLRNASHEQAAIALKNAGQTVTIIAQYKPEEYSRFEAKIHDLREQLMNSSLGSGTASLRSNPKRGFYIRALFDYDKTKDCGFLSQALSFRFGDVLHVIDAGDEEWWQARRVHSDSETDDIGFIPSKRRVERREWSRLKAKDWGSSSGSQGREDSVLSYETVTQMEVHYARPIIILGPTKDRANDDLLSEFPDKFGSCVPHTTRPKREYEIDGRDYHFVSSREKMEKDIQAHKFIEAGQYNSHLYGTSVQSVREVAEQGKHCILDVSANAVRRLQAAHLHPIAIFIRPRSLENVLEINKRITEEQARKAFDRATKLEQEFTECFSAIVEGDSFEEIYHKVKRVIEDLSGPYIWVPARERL", "test": "co-IP; HEK293T cells cotransfected with HA-Prickle2 and GFP-PSD-95, with or without FLAG-Vangl2 WT or ΔETSV; IP of the lysate with α-GFP Abs, western blot; 1% NP-40, 150 mM NaCl, 50 mM Tris-Cl pH 7.5, 2 mM EDTA, 10% glycerol, on ice or at 4 °C; precipitated Prickle2 (IP/Input) divided by the relative amount of precipitated PSD-95-GFP", "conditions": "partners not purified", "data": [{"binder": "hemagglutinin (HA)-Prickle2 (natural protein, UniProt Q80Y24 1-845, looked up, Prickle2; source: HEK293T, transfected, in lysate) MVTVMPLEMEKTISKLMFDFQRSSTSDDDSGCALEEYAWVPPGLKPEQVHQYYSCLPEEKVPYVNSAGEKLRIKQLLHQLPPHDNEVRYCNSLDEEEKRELKLFSNQRKRENLGRGNVRPFPVTMTGAICEQCGGQIKGGDIAVFASRAGHGICWHPPCFVCTVCNELLVDLIYFYQDGKIYCGRHHAECLKPRCAACDEIIFADECTEAEGRHWHMRHFCCFECETVLGGQRYIMKEGRPYCCHCFESLYAEYCDTCAQHIGIDQGQMTYDGQHWHATETCFCCAHCKKSLLGRPFLPKQGQIFCSRACSAGEDPNGSDSSDSAFQNARAKESRRSAKIGKNKGKTEEAMLNQHSQLQVSSNRLSADVDPLSVQMDLLSLSSQTPSLNRDPIWRSREEPFHYGNKMEQNQSQSPLQLLSQCNIRTSYSPGGQGAGAQPDMWAKHFSNPKRSSSMALKGHGGSFIQECREDYYPGRLMSQESYSDMSSQSFNETRGSIPVPKYEEEEEEEEGGISTQQCRPRRPLSSLKYTEDMTPTEQTPRGSMESLALSNATGLSAEGGAKRQEHLSRFSMPDLSKDSGMNVSEKLSNMGTLNSSMQFRSAESVRSLLSAQQYQEMEGNLHQLSNPLGYRDLQSHGRMHQSFDFDGGIASSKLPGQEGVHIQPMSERTRRRTTSRDDNRRFRPHRSRRSRRSRSDNALHLASEREVIARLKERPPLRAREDYDQFMRQRSFQESLGQGSRRDLYSQCPRTVSDLALQNAFGERWGPYFTEYDWCSTCSSSSESDNEGYFLGEPIPQPARLRYVTSDELLHKYSSYGVPKSSTLGGRGQLHSRKRQKSKNCIIS", "values": [{"measurement": "fold increase of the precipitated amount of Prickle2 with FLAG-Vangl2 co-expressed, against without Vangl2", "result": 63.6, "unit": "fold"}]}]}
